Reference: PMC12480911, “Visualization of liquid-liquid phase transitions using a tiny G-quadruplex binding protein”
Residue numbers refer to the chain shown, from its start.

Columns and labels:
SERF2 [1] = target: T1, SERF2 (human, UniProt P84101 1-59); experiment: fluorescence polarization; details: stated as sub-micromolar, FP/anisotropy: 20 mM NaPi pH 7.4, 100 mM KCl, 25 C (20-200 nM probe), NMR: same buffer, 4 C
T1 sequence: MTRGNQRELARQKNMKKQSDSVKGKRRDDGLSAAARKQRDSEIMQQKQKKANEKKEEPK

SERF2 [2] = target: T1, SERF2; experiment: fluorescence polarization; stated as sub-micromolar; FP/anisotropy: 20 mM NaPi pH 7.4, 100 mM KCl, 25 C (20-200 nM probe); NMR: same buffer, 4 C; details: protein: recombinant; tags: His-SUMO removed; AF488-labeled in some assays; label: 6-FAM; G4
SERF2 [3] = target: T1, SERF2; experiment: fluorescence polarization; 100 mM KCl; FP/anisotropy: 20 mM NaPi pH 7.4, 100 mM KCl, 25 C (20-200 nM probe); NMR: same buffer, 4 C; details: protein: recombinant, tags: His-SUMO removed, AF488-labeled in some assays
SERF2 K25A = target: T2, SERF2 K25A (human, UniProt P84101 1-59, K25A); experiment: EMSA; 5 uM each; minimally affected; FP/anisotropy: 20 mM NaPi pH 7.4, 100 mM KCl, 25 C (20-200 nM probe); NMR: same buffer, 4 C; details: protein: recombinant; tags: His-SUMO removed; label: 6-FAM (FP); unlabeled (NMR, EMSA); intramolecular G4
T2 sequence: T1 sequence with K25A

SERF2 K23A = target: T3, SERF2 K23A (human, UniProt P84101 1-59, K23A); experiment: as above; details: protein: recombinant; tags: His-SUMO removed; label: 6-FAM (FP); unlabeled (NMR, EMSA); intramolecular G4
T3 sequence: T1 sequence with K23A

SERF2 N-terminal domain = target: T4, SERF2 N-terminal domain (human, UniProt P84101 1-32); experiment: fluorescence polarization; 100 mM KCl; FP/anisotropy: 20 mM NaPi pH 7.4, 100 mM KCl, 25 C (20-200 nM probe); NMR: same buffer, 4 C; details: protein: recombinant; label: 6-FAM (FP); unlabeled (NMR, EMSA); intramolecular G4
T4 chain: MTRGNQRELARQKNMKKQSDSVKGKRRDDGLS

SERF2 [4] = target: T1, SERF2; experiment: NMR (HSQC, imino 1H, STD); FP/anisotropy: 20 mM NaPi pH 7.4, 100 mM KCl, 25 C (20-200 nM probe); NMR: same buffer, 4 C; details: protein: recombinant; tags: His-SUMO removed; AF488-labeled in some assays; dimeric G4 (2 strands)
SERF2 [5] = target: T1, SERF2; experiment: EMSA; 10 uM RNA, 5-40 uM SERF2; FP/anisotropy: 20 mM NaPi pH 7.4, 100 mM KCl, 25 C (20-200 nM probe); NMR: same buffer, 4 C; details: protein: recombinant; tags: His-SUMO removed; AF488-labeled in some assays; G4
SERF2 [6] = target: T1, SERF2; experiment: fluorescence polarization/anisotropy; stated as sub-micromolar; FP/anisotropy: 20 mM NaPi pH 7.4, 100 mM KCl, 25 C (20-200 nM probe); NMR: same buffer, 4 C; details: protein: recombinant; tags: His-SUMO removed; AF488-labeled in some assays; label: Cy3; G4

TERRA60 showed a Kd (SERF2 [1]; AF488-SERF2, similar to TERRA23) of less than 1 µM.

Work on polyG yielded a Kd (SERF2 [1]) of less than 1 µM.

B1: (GGA)7 (structured_RNA)
RNA: GGAGGAGGAGGAGGAGGAGGA
B1 gave a Kd (SERF2 [2]) of less than 1 µM.

B2: Mark2 rG4 (structured_RNA)
RNA: GAAGGGGAGGGGGCUGGGGGGGGGCAGGG
Work on B2 yielded a Kd (SERF2 [3]; label: 6-FAM (FP), G4) of 4.5 ± 0.5 µM.

B3: (GGGA)4 (structured_RNA)
RNA: GGGAGGGAGGGAGGGA
For B3, the Kd (SERF2 [2]) was less than 1 µM.

B4: TERRA23 (structured_RNA)
RNA: UAGGGUUAGGGUUAGGGUUAGGG
For B4, the binding result (SERF2 K25A) was “binds”, the binding result (SERF2 K23A) was “binds” and the Kd (SERF2 [3]; label: 6-FAM (FP), unlabeled (NMR, EMSA), intramolecular G4) was 0.3 ± 0.02 µM. For the same molecule, the binding signal (SERF2 N-terminal domain) was ~10 fold weaker than full length.

B5: (G4C2)4 RNA (structured_RNA)
RNA: GGGGCCGGGGCCGGGGCCGGGGCC
Molecule B5 has a Kd (SERF2 [3]; label: 6-FAM, G4) of 0.88 ± 0.1 µM.

B6: TERRA12 (structured_RNA)
RNA: UUAGGGUUAGGG
B6: binds (SERF2 [4]).

B7: Stxbp5 rG4 (structured_RNA)
RNA: GGGAAGGGAAGGGGAGUGGG
B7: binds (SERF2 [5]).

B8: (UG4U)6 (structured_RNA)
RNA: UGGGGUUGGGGUUGGGGUUGGGGUUGGGGUUGGGGU
B8 was tested, and the Kd (SERF2 [3]; label: 6-FAM, G4) was 0.73 ± 0.25 µM.

B9: (AGG)5 (structured_RNA)
RNA: AGGAGGAGGAGGAGG
Work on B9 yielded a Kd (SERF2 [6]) of less than 1 µM.
